This is an account of results in PMC4699842, “Synthetic prions with novel strain-specified properties” (PLoS Pathogens, 2015).

This series concerns the molecule itself. Nature of the series: thioflavin-T fibrillization assay.

B1: recombinant mouse prion protein residues 23-231 (recMoPrP(23–231)) (natural protein)
chain: not shown
notes: also called recPrP; rec full-length mouse (Mo) PrP
As to B1, the binding result is “binds”.
